Assay results reported in article PMC8096265, “A functional LSD1 coregulator screen reveals a novel transcriptional regulatory cascade connecting R-loop homeostasis with epigenetic regulation” (Nucleic Acids Research, 2021).

How the values were obtained:
[1] = system: RNA:DNA hybrid; experiment: RNA:DNA unwinding assay; format: biochemical; details: 4.79 μM recombinant DDX19A, 1 nM Cy-5-labeled RNA:DNA hybrid, 4 mM ATP, 30°C, 60 min, pH 7.5
Method: RNA:DNA unwinding assay was performed as described ([54]). In brief: RNA:DNA hybrids were annealed in vitro in 5 mM Tris/HCl pH 8.5. The sequence of the top RNA strand was: 5′‐[…]‐3′, and the sequence of the bottom DNA strand was 5′-[…]‐3′. The annealed RNA:DNA hybrid has a 5′ ssDNA overhang and is labeled with Cy-5. Unwinding experiments were carried out at 30°C for 60 min in 30 mM Tris–HCl (pH 7.5), 50 mM NaCl, 5 mM MgCl2, 2 mM DTT, 0.01% NP‐40, 0.1 mg/ml BSA, 4 mM ATP, 1 nM Cy-5‐labeled RNA:DNA hybrid substrate, in the presence of 4.79 μM recombinant DDX19A. The reaction was stopped by the addition of SDS to a final concentration of 0.5% and 20 ng proteinase K (20 mg/ml). The reaction was afterward loaded onto a 10% non-denaturing polyacrylamide gel and analysed using a FusionFX detection system (VILBER).

[2] = system: R-loops from NIH/3T3 cell lysate; experiment: S9.6 antibody IP, co-precipitation of LSD1 and DDX19A; format: cell-based, murine; details: NIH/3T3 whole cell lysate, Western blot
Method: 100 μl Dynabeads® Protein G were pre-blocked with 0.5% BSA/PBS for 2 h at 4°C. 10 × 10^6 non-crosslinked NIH/3T3 cells were harvested, washed once in 1× PBS and lysed in 1 ml Cell Lysis Buffer (85 mM KCl, 5 mM HEPES pH 8, 0.5% NP-40, cOmplete™ EDTA-free PIC) for 15 min on ice. Nuclei were collected by spinning 1 min at 15 000 × g, 4°C. The pellet was resuspended in 750 μl RSB buffer (10 mM Tris–HCl pH 7.5, 200 mM NaCl, 2.5 mM MgCl2, cOmplete™ EDTA-free PIC) supplemented with 0.2% sodium-deoxycholate, 0.1% SDS, 0.05% sodium-lauroyl-sarcosinate and 0.5% Triton X-100. Cells were sonicated for 4 min in an EpiShear Probe Sonicator (20 s pulse, 30 s pause, 40%). After taking 5% as input, samples were transferred to a 15 ml falcon tube and diluted 1:4 by addition of 2.3 ml RSB with 0.5% Triton X-100 (RSB+T). The samples were subjected to pre-clearing with 5 μg mouse IgG and 35 μl Dynabeads® Protein G for 1 h at 4°C. Magnetic beads were locked and the supernatant was split into three Eppendorf tubes. For the S9.6 antibody-specificity control, 40 U of RNAse H (NEB) were added to one of the tubes and all samples were incubated for 10 min at 37°C before adding the IP antibodies. The samples were subjected to IP with 4 μg of either the S9.6 antibody or mouse IgG and 32 μl pre-blocked beads per sample. 10 ng RNase A was added to each tube before rotating at 4°C for 2.5 h. […]

B1: DDX19A: DEAD-box helicase 19A; recombinant GST-tagged for in vitro tests, endogenous in S9.6 IP (protein, UniProt Q9NUU7 2-478, looked up)
ATP-dependent RNA helicase …: ATDSWALAVDEQEAAVKSMTNLQIKEEKVKADTNGIIKTSTTAEKTDEEEKEDRAAQSLLNKLIRSNLVDNTNQVEVLQRDPNSPLYSVKSFEELRLKPQLLQGVYAMGFNRPSKIQENALPMMLAEPPQNLIAQSQSGTGKTAAFVLAMLSRVEPSDRYPQCLCLSPTYELALQTGKVIEQMGKFYPELKLAYAVRGNKLERGQKISEQIVIGTPGTVLDWCSKLKFIDPKKIKVFVLDEADVMIATQGHQDQSIRIQRMLPRNCQMLLFSATFEDSVWKFAQKVVPDPNVIKLKREEETLDTIKQYYVLCSSRDEKFQALCNLYGAITIAQAMIFCHTRKTASWLAAELSKEGHQVALLSGEMMVEQRAAVIERFREGKEKVLVTTNVCARGIDVEQVSVVINFDLPVDKDGNPDNETYLHRIGRTGRFGKRGLAVNMVDSKHSMNILNRIQEHFNKKIERLDTDDLDEIEKIAN
modifications: GST tag
notes: DEAD-box helicase 19A; recombinant GST-tagged for in vitro tests, endogenous in S9.6 IP
[1]
  ability to resolve RNA:DNA hybrids in vitro: confirmed its ability to resolve RNA:DNA hybrids in vitro
[2]
  association with R-loops (co-precipitation with S9.6): strong physical association
